Results from US20240132625A1 (KOREA ADVANCED INSTITUTE OF SCIENCE AND TECHNOLOGY, published 2024).

B1: CV30 (antibody, V domains shown)
VH: EVQLVESGGGLIQPGGSLRLSCAASGVIVSSNYMSWVRQAPGKGLEWVSVIYSGGSTYYADSVKGRFTISRDNSKNTLYLQMNSLRAEDTAVYYCARDLDVSGGMDVWGQGTTVTVSS
VL: not shown
B2: homodimeric coiled-coil (HomoCC) (designed binder)
chain: DEEQRKVVEEDLKVLEHLRRVVERKEHLVRDAYEETFDDQQREVVREKLKVLEHLEKVIERDRHLSSRPGL

Tests used:
[1] = biological target: Receptor-binding domain of the SARS-CoV-2 spike protein (biotinylated, Acrobio system) (SARS-CoV-2, UniProt P0DTC2 319-541); experiment: BLI
[2] = biological target: the molecule itself; experiment: homodimerisation; method not stated (FIG. 2)

Binder | Kd [1] [nM] | Kd [2] [µM]
B1 | ≤ 0.01 | –
B2 | – | 7.6
